Results: the supplement of paper PMC5998384

Columns and labels:
[1] = system: HeLa Kyoto; assay: melting temperature (median over replicates), in situ; higher = more thermally stable
[2] = system: HeLa Kyoto; assay: thermal stability score vs G1/S (z-score of summed log2 fold changes over temperatures); higher = more thermally stable than in G1/S
[3] = system: HeLa Kyoto; assay: solubility in G1/S (NP-40 vs SDS abundance) (log2 ratio); higher = more soluble; details: cell cycle stage: G1/S
[4] = system: HeLa Kyoto; assay: solubility change mitosis vs G1/S (difference of NP-40 vs SDS log2 ratios) (log2 ratio difference); higher = more soluble in mitosis
[5] = cell cycle stage: early G1 (4.5 h after nocodazole release)
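For melting temperature (median over replicates), in situ in this document: HeLa Kyoto cells synchronized by double thymidine or nocodazole block, proteins quantified by TMT10plex mass spectrometry, three independent biological replicates.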
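For solubility change mitosis vs G1/S (difference of NP-40 vs SDS log2 ratios) in this document: synchronized HeLa Kyoto cells (double thymidine block for G1/S, nocodazole release for mitosis), protein amounts in NP-40 versus SDS lysates quantified by mass spectrometry, three biological replicates.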
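For solubility in G1/S (NP-40 vs SDS abundance) in this document: HeLa Kyoto cells arrested at G1/S by double thymidine block, proteins quantified by TMT10plex mass spectrometry in mild NP-40 versus SDS extracts, three biological replicates.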
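For thermal stability score vs G1/S (z-score of summed log2 fold changes over temperatures) in this document: synchronized HeLa Kyoto cells, proteins quantified by TMT10plex mass spectrometry, three biological replicates, mitosis taken 0.5 h after nocodazole release, G1/S directly after double thymidine block.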

**Q.** Which results are given for “MAAGVEAAAEVAATEIKMEEESGAPGVPSGNGAPGPKGEGERPAQNEKRKEKNIKRGGNRFEPYANPTKRYRAFITNIPFDVKWQSLKDLVKEKVGEVTYVELLMDAEGKSRGCAVVEFKMEESMKKAAEVLNKHSLSGRPLKVKEDPDGEHARRAMQKVMATTGGMGMGPGGPGMITIPPSILNNPNIPNEIIHALQAGRLGSTVFVANLDYKVGWKKLKEVFSMAGVVVRADILEDKDGKSRGIGTVTFEQSIEAVQAISMFNGQLLFDRPMHVKMDERALPKGDFFPPERPQQLPHGLGGIGMGLGPGGQPIDANHLNKGIGMGNIGPAGMGMEGIGFGINKMGGMEGPFGGGMENMGRFGSGMNMGRINEILSNALKRGEIIAKQGGGGGGGSVPGIERMGPGIDRLGGAGMERMGAGLGHGMDRVGSEIERMGLVMDRMGSVERMGSGIERMGPLGLDHMASSIERMGQTMERIGSGVERMGAGMGFGLERMAAPIDRVGQTIERMGSGVERMGPAIERMGLSMERMVPAGMGAGLERMGPVMDRMATGLERMGANNLERMGLERMGANSLERMGLERMGANSLERMGPAMGPALGAGIERMGLAMGGGGGASFDRAIEMERGNFGGSFAGSFGGAGGHAPGVARKACQIFVRNLPFDFTWKMLKDKFNECGHVLYADIKMENGKSKGCGVVKFESPEVAERACRMMNGMKLSGREIDVRIDRNA [HNRNPM]”?
**A.** melting temperature ([1]; cell cycle stage: G1/S): 46.7 °C; melting temperature ([1]; cell cycle stage: mitosis): 47.3 °C; thermal stability score [2, 5]: 6.88; thermal stability score ([2]; cell cycle stage: mitosis): 13.2; solubility in G1/S (log2) [3]: -0.172; solubility change mitosis (log2) [4]: 0.236

**Q.** How did the melting temperature ([1]; cell cycle stage: G1/S) turn out when “MSDHGDVSLPPEDRVRALSQLGSAVEVNEDIPPRRYFRSGVEIIRMASIYSEEGNIEHAFILYNKYITLFIEKLPKHRDYKSAVIPEKKDTVKKLKEIAFPKAEELKAELLKRYTKEYTEYNEEKKKEAEELARNMAIQQELEKEKQRVAQQKQQQLEQEQFHAFEEMIRNQELEKERLKIVQEFGKVDPGLGGPLVPDLEKPSLDVFPTLTVSSIQPSDCHTTVRPAKPPVVDRSLKPGALSNSESIPTIDGLRHVVVPGRLCPQFLQLASANTARGVETCGILCGKLMRNEFTITHVLIPKQSAGSDYCNTENEEELFLIQDQQGLITLGWIHTHPTQTAFLSSVDLHTHCSYQMMLPESVAIVCSPKFQETGFFKLTDHGLEEISSCRQKGFHPHSKDPPLFCSCSHVTVVDRAVTITDLR [STAMBP]” was run?
**A.** 48.6 °C

**Q.** And the melting temperature ([1]; cell cycle stage: mitosis)?
**A.** 49.7 °C

**Q.** And the thermal stability score [2, 5]?
**A.** 0.214

**Q.** What about the thermal stability score ([2]; cell cycle stage: mitosis) of the same sequence?
**A.** 0.921

**Q.** What about the “solubility in G1/S (log2)” value [3] of the same sequence?
**A.** 0.276

**Q.** What about the “solubility change mitosis (log2)” value [4] of the same sequence?
**A.** -0.118

**Q.** What does the source list for “MRQKRKGDLSPAELMMLTIGDVIKQLIEAHEQGKDIDLNKVKTKTAAKYGLSAQPRLVDIIAAVPPQYRKVLMPKLKAKPIRTASGIAVVAVMCKPHRCPHISFTGNICVYCPGGPDSDFEYSTQSYTGYEPTSMRAIRARYDPFLQTRHRIEQLKQLGHSVDKVEFIVMGGTFMALPEEYRDYFIRNLHDALSGHTSNNIYEAVKYSERSLTKCIGITIETRPDYCMKRHLSDMLTYGCTRLEIGVQSVYEDVARDTNRGHTVKAVCESFHLAKDSGFKVVAHMMPDLPNVGLERDIEQFTEFFENPAFRPDGLKLYPTLVIRGTGLYELWKSGRYKSYSPSDLVELVARILALVPPWTRVYRVQRDIPMPLVSSGVEHGNLRELALARMKDLGIQCRDVRTREVGIQEIHHKVRPYQVELVRRDYVANGGWETFLSYEDPDQDILIGLLRLRKCSEETFRFELGGGVSIVRELHVYGSVVPVSSRDPTKFQHQGFGMLLMEEAERIAREEHGSGKIAVISGVGTRNYYRKIGYRLQGPYMVKMLK [ELP3]”?
**A.** melting temperature ([1]; cell cycle stage: G1/S): 51.9 °C; melting temperature ([1]; cell cycle stage: mitosis): 51.4 °C; thermal stability score [2, 5]: 0.13; thermal stability score ([2]; cell cycle stage: mitosis): -1.12; solubility in G1/S (log2) [3]: -0.062; solubility change mitosis (log2) [4]: -0.0597

**Q.** Which melting temperature ([1]; cell cycle stage: G1/S) does the source give for “MYTAIPQSGSPFPGSVQDPGLHVWRVEKLKPVPVAQENQGVFFSGDSYLVLHNGPEEVSHLHLWIGQQSSRDEQGACAVLAVHLNTLLGERPVQHREVQGNESDLFMSYFPRGLKYQEGGVESAFHKTSTGAPAAIKKLYQVKGKKNIRATERALNWDSFNTGDCFILDLGQNIFAWCGGKSNILERNKARDLALAIRDSERQGKAQVEIVTDGEEPAEMIQVLGPKPALKEGNPEEDLTADKANAQAAALYKVSDATGQMNLTKVADSSPFALELLISDDCFVLDNGLCGKIYIWKGRKANEKERQAALQVAEGFISRMQYAPNTQVEILPQGHESPIFKQFFKDWK [CAPG]” here?
**A.** 50.2 °C

**Q.** And the melting temperature ([1]; cell cycle stage: mitosis)?
**A.** 50.3 °C

**Q.** And the thermal stability score [2, 5]?
**A.** 0.941

**Q.** And the thermal stability score ([2]; cell cycle stage: mitosis)?
**A.** 0.63

**Q.** And the “solubility in G1/S (log2)” value [3]?
**A.** 0.272

**Q.** What about the “solubility change mitosis (log2)” value [4] of the same sequence?
**A.** -0.0974

**Q.** For “MVGQMYCYPGSHLARALTRALALALVLALLVGPFLSGLAGAIPAPGGRWARDGQVPPASRSRSVLLDVSAGQLLMVDGRHPDAVAWANLTNAIRETGWAFLELGTSGQYNDSLQAYAAGVVEAAVSEELIYMHWMNTVVNYCGPFEYEVGYCERLKSFLEANLEWMQEEMESNPDSPYWHQVRLTLLQLKGLEDSYEGRVSFPAGKFTIKPLGFLLLQLSGDLEDLELALNKTKIKPSLGSGSCSALIKLLPGQSDLLVAHNTWNNYQHMLRVIKKYWLQFREGPWGDYPLVPGNKLVFSSYPGTIFSCDDFYILGSGLVTLETTIGNKNPALWKYVRPRGCVLEWVRNIVANRLASDGATWADIFKRFNSGTYNNQWMIVDYKAFIPGGPSPGSRVLTILEQIPGMVVVADKTSELYQKTYWASYNIPSFETVFNASGLQALVAQYGDWFSYDGSPRAQIFRRNQSLVQDMDSMVRLMRYNDFLHDPLSLCKACNPQPNGENAISARSDLNPANGSYPFQALRQRSHGGIDVKVTSMSLARILSLLAASGPTWDQVPPFQWSTSPFSGLLHMGQPDLWKFAPVKVSWD [PLBD2]”, which melting temperature ([1]; cell cycle stage: G1/S) is on record?
**A.** 56.6 °C

**Q.** And the melting temperature ([1]; cell cycle stage: mitosis)?
**A.** 55.9 °C

**Q.** And the thermal stability score [2, 5]?
**A.** -1.75

**Q.** And the thermal stability score ([2]; cell cycle stage: mitosis)?
**A.** -1.5

**Q.** What about the “solubility in G1/S (log2)” value [3] of the same sequence?
**A.** 0.298

**Q.** And the “solubility change mitosis (log2)” value [4]?
**A.** -0.0289

**Q.** What does the source list for “MWRSCLRLRDGGRRLLNRPAGGPSASMSPGPTIPSPARAYAPPTERKRFYQNVSITQGEGGFEINLDHRKLKTPQAKLFTVPSEALAIAVATEWDSQQDTIKYYTMHLTTLCNTSLDNPTQRNKDQLIRAAVKFLDTDTICYRVEEPETLVELQRNEWDPIIEWAEKRYGVEISSSTSIMGPSIPAKTREVLVSHLASYNTWALQGIEFVAAQLKSMVLTLGLIDLRLTVEQAVLLSRLEEEYQIQKWGNIEWAHDYELQELRARTAAGTLFIHLCSESTTVKHKLLKE [ATPAF2]”?
**A.** melting temperature ([1]; cell cycle stage: G1/S): 56.8 °C; melting temperature ([1]; cell cycle stage: mitosis): 56 °C; thermal stability score [2, 5]: -0.051; thermal stability score ([2]; cell cycle stage: mitosis): -1.43; solubility in G1/S (log2) [3]: 0.104; solubility change mitosis (log2) [4]: -0.295

**Q.** For “MDLAAAAEPGAGSQHLEVRDEVAEKCQKLFLDFLEEFQSSDGEIKYLQLAEELIRPERNTLVVSFVDLEQFNQQLSTTIQEEFYRVYPYLCRALKTFVKDRKEIPLAKDFYVAFQDLPTRHKIRELTSSRIGLLTRISGQVVRTHPVHPELVSGTFLCLDCQTVIRDVEQQFKYTQPNICRNPVCANRRRFLLDTNKSRFVDFQKVRIQETQAELPRGSIPRSLEVILRAEAVESAQAGDKCDFTGTLIVVPDVSKLSTPGARAETNSRVSGVDGYETEGIRGLRALGVRDLSYRLVFLACCVAPTNPRFGGKELRDEEQTAESIKNQMTVKEWEKVFEMSQDKNLYHNLCTSLFPTIHGNDEVKRGVLLMLFGGVPKTTGEGTSLRGDINVCIVGDPSTAKSQFLKHVEEFSPRAVYTSGKASSAAGLTAAVVRDEESHEFVIEAGALMLADNGVCCIDEFDKMDVRDQVAIHEAMEQQTISITKAGVKATLNARTSILAAANPISGHYDRSKSLKQNINLSAPIMSRFDLFFILVDECNEVTDYAIARRIVDLHSRIEESIDRVYSLDDIRRYLLFARQFKPKISKESEDFIVEQYKHLRQRDGSGVTKSSWRITVRQLESMIRLSEAMARMHCCDEVQPKHVKEAFRLLNKSIIRVETPDVNLDQEEEIQMEVDEGAGGINGHADSPAPVNGINGYNEDINQESAPKASLRLGFSEYCRISNLIVLHLRKVEEEEDESALKRSELVNWYLKEIESEIDSEEELINKKRIIEKVIHRLTHYDHVLIELTQAGLKGSTEGSESYEEDPYLVVNPNYLLED [MCM6]”, which melting temperature ([1]; cell cycle stage: G1/S) is on record?
**A.** 50.6 °C

**Q.** What about the melting temperature ([1]; cell cycle stage: mitosis) of the same sequence?
**A.** 50.7 °C

**Q.** What about the thermal stability score [2, 5] of the same sequence?
**A.** 3.18

**Q.** What about the thermal stability score ([2]; cell cycle stage: mitosis) of the same sequence?
**A.** 4.76

**Q.** And the “solubility in G1/S (log2)” value [3]?
**A.** -0.0881

**Q.** What about the “solubility change mitosis (log2)” value [4] of the same sequence?
**A.** -0.0695

**Q.** Which results are given for “MLLKEYRICMPLTVDEYKIGQLYMISKHSHEQSDRGEGVEVVQNEPFEDPHHGNGQFTEKRVYLNSKLPSWARAVVPKIFYVTEKAWNYYPYTITEYTCSFLPKFSIHIETKYEDNKGSNDTIFDNEAKDVEREVCFIDIACDEIPERYYKESEDPKHFKSEKTGRGQLREGWRDSHQPIMCSYKLVTVKFEVWGLQTRVEQFVHKVVRDILLIGHRQAFAWVDEWYDMTMDEVREFERATQEATNKKIGIFPPAISISSIPLLPSSVRSAPSSAPSTPLSTDAPEFLSVPKDRPRKKSAPETLTLPDPEKKATLNLPGMHSSDKPCRPKSE [PITPNC1]”?
**A.** melting temperature ([1]; cell cycle stage: G1/S): 51.7 °C; melting temperature ([1]; cell cycle stage: mitosis): 51.5 °C; thermal stability score [2, 5]: 0.0627; thermal stability score ([2]; cell cycle stage: mitosis): -1.13; solubility in G1/S (log2) [3]: -0.0542; solubility change mitosis (log2) [4]: -0.0509

**Q.** What does the source list for “MAETYDFLFKFLVIGSAGTGKSCLLHQFIENKFKQDSNHTIGVEFGSRVVNVGGKTVKLQIWDTAGQERFRSVTRSYYRGAAGALLVYDITSRETYNSLAAWLTDARTLASPNIVVILCGNKKDLDPEREVTFLEASRFAQENELMFLETSALTGENVEEAFLKCARTILNKIDSGELDPERMGSGIQYGDASLRQLRQPRSAQAVAPQPCGC [RAB4B]”?
**A.** melting temperature ([1]; cell cycle stage: G1/S): 56.8 °C; melting temperature ([1]; cell cycle stage: mitosis): 57.9 °C; thermal stability score [2, 5]: -1.18; thermal stability score ([2]; cell cycle stage: mitosis): -2.73; solubility in G1/S (log2) [3]: 0.181; solubility change mitosis (log2) [4]: -0.29
